The results in this text go back to the supplement of paper PMC5998384.

In data set [1] the test system is HeLa Kyoto. As to the kind of experiment: melting temperature (median over replicates), in situ; higher = more thermally stable.
Data set [2] concerns HeLa Kyoto. As to the kind of experiment: solubility change mitosis vs G1/S (difference of NP-40 vs SDS log2 ratios) (log2 ratio difference); higher = more soluble in mitosis.
Data set [3] has as its system HeLa Kyoto. Kind of data set: thermal stability score vs G1/S (z-score of summed log2 fold changes over temperatures); higher = more thermally stable than in G1/S.
The test system of data set [4] is HeLa Kyoto. Kind of data set: solubility in G1/S (NP-40 vs SDS abundance) (log2 ratio); higher = more soluble. Conditions: cell cycle stage: G1/S.
Setting [5] is: cell cycle stage: early G1 (4.5 h after nocodazole release).
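Throughout, for melting temperature (median over replicates), in situ: HeLa Kyoto cells synchronized by double thymidine or nocodazole block, proteins quantified by TMT10plex mass spectrometry, three independent biological replicates.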
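Throughout, for solubility change mitosis vs G1/S (difference of NP-40 vs SDS log2 ratios): synchronized HeLa Kyoto cells (double thymidine block for G1/S, nocodazole release for mitosis), protein amounts in NP-40 versus SDS lysates quantified by mass spectrometry, three biological replicates.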
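Throughout, for solubility in G1/S (NP-40 vs SDS abundance): HeLa Kyoto cells arrested at G1/S by double thymidine block, proteins quantified by TMT10plex mass spectrometry in mild NP-40 versus SDS extracts, three biological replicates.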
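Throughout, for thermal stability score vs G1/S (z-score of summed log2 fold changes over temperatures): synchronized HeLa Kyoto cells, proteins quantified by TMT10plex mass spectrometry, three biological replicates, mitosis taken 0.5 h after nocodazole release, G1/S directly after double thymidine block.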

As for “MSSKGSVVLAYSGGLDTSCILVWLKEQGYDVIAYLANIGQKEDFEEARKKALKLGAKKVFIEDVSREFVEEFIWPAIQSSALYEDRYLLGTSLARPCIARKQVEIAQREGAKYVSHGATGKGNDQVRFELSCYSLAPQIKVIAPWRMPEFYNRFKGRNDLMEYAKQHGIPIPVTPKNPWSMDENLMHISYEAGILENPKNQAPPGLYTKTQDPAKAPNTPDILEIEFKKGVPVKVTNVKDGTTHQTSLELFMYLNEVAGKHGVGRIDIVENRFIGMKSRGIYETPAGTILYHAHLDIEAFTMDREVRKIKQGLGLKFAELVYTGFWHSPECEFVRHCIAKSQERVEGKVQVSVLKGQVYILGRESPLSLYNEELVSMNVQGDYEPTDATGFININSLRLKEYHRLQSKVTAK [ASS1]”, the figures for the melting temperature in data set [1] (cell cycle stage: G1/S) and in data set [1] (cell cycle stage: mitosis) were 54.3 °C and 54.1 °C, respectively. For the same sequence, the “solubility change mitosis (log2)” value in data set [2] is -0.0958. The thermal stability score is -0.511 in data set [3] (setting [5]) and -0.833 in data set [3] (cell cycle stage: mitosis). In addition, the “solubility in G1/S (log2)” value in data set [4] amounted to 0.145.

As to “MSSLIRRVISTAKAPGAIGPYSQAVLVDRTIYISGQIGMDPSSGQLVSGGVAEEAKQALKNMGEILKAAGCDFTNVVKTTVLLADINDFNTVNEIYKQYFKSNFPARAAYQVAALPKGSRIEIEAVAIQGPLTTASL [HRSP12]”, the results for the melting temperature in data set [1] (cell cycle stage: G1/S) and in data set [1] (cell cycle stage: mitosis) were 55.4 °C and 55 °C, respectively. For the same sequence, the “solubility change mitosis (log2)” value in data set [2] was found to be 0.158. The thermal stability score in data set [3] (setting [5]) was -1.03; in data set [3] (cell cycle stage: mitosis) it was -1.85. Also, in data set [4], the “solubility in G1/S (log2)” value amounted to 0.213.

On to “MSSPASTPSRRGSRRGRATPAQTPRSEDARSSPSQRRRGEDSTSTGELQPMPTSPGVDLQSPAAQDVLFSSPPQMHSSAIPLDFDVSSPLTYGTPSSRVEGTPRSGVRGTPVRQRPDLGSAQKGLQVDLQSDGAAAEDIVASEQSLGQKLVIWGTDVNVAACKENFQRFLQRFIDPLAKEEENVGIDITEPLYMQRLGEINVIGEPFLNVNCEHIKSFDKNLYRQLISYPQEVIPTFDMAVNEIFFDRYPDSILEHQIQVRPFNALKTKNMRNLNPEDIDQLITISGMVIRTSQLIPEMQEAFFQCQVCAHTTRVEMDRGRIAEPSVCGRCHTTHSMALIHNRSLFSDKQMIKLQESPEDMPAGQTPHTVILFAHNDLVDKVQPGDRVNVTGIYRAVPIRVNPRVSNVKSVYKTHIDVIHYRKTDAKRLHGLDEEAEQKLFSEKRVELLKELSRKPDIYERLASALAPSIYEHEDIKKGILLQLFGGTRKDFSHTGRGKFRAEINILLCGDPGTSKSQLLQYVYNLVPRGQYTSGKGSSAVGLTAYVMKDPETRQLVLQTGALVLSDNGICCIDEFDKMNESTRSVLHEVMEQQTLSIAKAGIICQLNARTSVLAAANPIESQWNPKKTTIENIQLPHTLLSRFDLIFLLLDPQDEAYDRRLAHHLVALYYQSEEQAEEELLDMAVLKDYIAYAHSTIMPRLSEEASQALIEAYVDMRKIGSSRGMVSAYPRQLESLIRLAEAHAKVRLSNKVEAIDVEEAKRLHREALKQSATDPRTGIVDISILTTGMSATSRKRKEELAEALKKLILSKGKTPALKYQQLFEDIRGQSDIAITKDMFEEALRALADDDFLTVTGKTVRLL [MCM4]”, for which the melting temperature in data set [1] (cell cycle stage: G1/S) came out at 50.6 °C; in data set [1] (cell cycle stage: mitosis), 50.4 °C. Further, in data set [2], the “solubility change mitosis (log2)” value was -0.0425. Also, the thermal stability score was 0.944 in data set [3] (setting [5]) and 0.88 in data set [3] (cell cycle stage: mitosis). Further, in data set [4], the “solubility in G1/S (log2)” value was determined as 0.157.

Consider “MSSRKQGSQPRGQQSAEEENFKKPTRSNMQRSKMRGASSGKKTAGPQQKNLEPALPGRWGGRSAENPPSGSVRKTRKNKQKTPGNGDGGSTSEAPQPPRKKRARADPTVESEEAFKNRMEVKVKIPEELKPWLVEDWDLVTRQKQLFQLPAKKNVDAILEEYANCKKSQGNVDNKEYAVNEVVAGIKEYFNVMLGTQLLYKFERPQYAEILLAHPDAPMSQVYGAPHLLRLFVRIGAMLAYTPLDEKSLALLLGYLHDFLKYLAKNSASLFTASDYKVASAEYHRKAL [MORF4L2]”, for which the melting temperature in data set [1] (cell cycle stage: G1/S) is 52.9 °C; in data set [1] (cell cycle stage: mitosis) it was 52.1 °C. For the same sequence, the “solubility change mitosis (log2)” value in data set [2] turned out to be 0.484. Further, the thermal stability score amounted to 0.948 in data set [3] (setting [5]) and 0.257 in data set [3] (cell cycle stage: mitosis). In data set [4], the “solubility in G1/S (log2)” value was found to be 0.0399.

As for “MSSSGLNSEKVAALIQKLNSDPQFVLAQNVGTTHDLLDICLKRATVQRAQHVFQHAVPQEGKPITNQKSSGRCWIFSCLNVMRLPFMKKLNIEEFEFSQSYLFFWDKVERCYFFLSAFVDTAQRKEPEDGRLVQFLLMNPANDGGQWDMLVNIVEKYGVIPKKCFPESYTTEATRRMNDILNHKMREFCIRLRNLVHSGATKGEISATQDVMMEEIFRVVCICLGNPPETFTWEYRDKDKNYQKIGPITPLEFYREHVKPLFNMEDKICLVNDPRPQHKYNKLYTVEYLSNMVGGRKTLYNNQPIDFLKKMVAASIKDGEAVWFGCDVGKHFNSKLGLSDMNLYDHELVFGVSLKNMNKAERLTFGESLMTHAMTFTAVSEKDDQDGAFTKWRVENSWGEDHGHKGYLCMTDEWFSEYVYEVVVDRKHVPEEVLAVLEQEPIILPAWDPMGALAE [BLMH]”, the melting temperature in data set [1] (cell cycle stage: G1/S) stood at 58.1 °C; in data set [1] (cell cycle stage: mitosis), 59 °C. Further, the “solubility change mitosis (log2)” value in data set [2] is -0.251. In addition, the thermal stability score was -1.55 in data set [3] (setting [5]) and -0.29 in data set [3] (cell cycle stage: mitosis). The “solubility in G1/S (log2)” value in data set [4] is -0.128.

As to “MSSSNVEVFIPVSQGNTNGFPATASNDLKAFTEGAVLSFHNICYRVKLKSGFLPCRKPVEKEILSNINGIMKPGLNAILGPTGGGKSSLLDVLAARKDPSGLSGDVLINGAPRPANFKCNSGYVVQDDVVMGTLTVRENLQFSAALRLATTMTNHEKNERINRVIQELGLDKVADSKVGTQFIRGVSGGERKRTSIGMELITDPSILFLDEPTTGLDSSTANAVLLLLKRMSKQGRTIIFSIHQPRYSIFKLFDSLTLLASGRLMFHGPAQEALGYFESAGYHCEAYNNPADFFLDIINGDSTAVALNREEDFKATEIIEPSKQDKPLIEKLAEIYVNSSFYKETKAELHQLSGGEKKKKITVFKEISYTTSFCHQLRWVSKRSFKNLLGNPQASIAQIIVTVVLGLVIGAIYFGLKNDSTGIQNRAGVLFFLTTNQCFSSVSAVELFVVEKKLFIHEYISGYYRVSSYFLGKLLSDLLPMRMLPSIIFTCIVYFMLGLKPKADAFFVMMFTLMMVAYSASSMALAIAAGQSVVSVATLLMTICFVFMMIFSGLLVNLTTIASWLSWLQYFSIPRYGFTALQHNEFLGQNFCPGLNATGNNPCNYATCTGEEYLVKQGIDLSPWGLWKNHVALACMIVIFLTIAYLKLLFLKKYS [ABCG2]”, the melting temperature amounted to 60.7 °C in data set [1] (cell cycle stage: G1/S) and 60.5 °C in data set [1] (cell cycle stage: mitosis). Also, the “solubility change mitosis (log2)” value in data set [2] was -0.0838. Moreover, the thermal stability score was -1.15 in data set [3] (setting [5]) and -0.412 in data set [3] (cell cycle stage: mitosis). For the same sequence, the “solubility in G1/S (log2)” value in data set [4] was -0.574.

As to “MSSSPLSKKRRVSGPDPKPGSNCSPAQSVLSEVPSVPTNGMAKNGSEADIDEGLYSRQLYVLGHEAMKRLQTSSVLVSGLRGLGVEIAKNIILGGVKAVTLHDQGTAQWADLSSQFYLREEDIGKNRAEVSQPRLAELNSYVPVTAYTGPLVEDFLSGFQVVVLTNTPLEDQLRVGEFCHNRGIKLVVADTRGLFGQLFCDFGEEMILTDSNGEQPLSAMVSMVTKDNPGVVTCLDEARHGFESGDFVSFSEVQGMVELNGNQPMEIKVLGPYTFSICDTSNFSDYIRGGIVSQVKVPKKISFKSLVASLAEPDFVVTDFAKFSRPAQLHIGFQALHQFCAQHGRPPRPRNEEDAAELVALAQAVNARALPAVQQNNLDEDLIRKLAYVAAGDLAPINAFIGGLAAQEVMKACSGKFMPIMQWLYFDALECLPEDKEVLTEDKCLQRQNRYDGQVAVFGSDLQEKLGKQKYFLVGAGAIGCELLKNFAMIGLGCGEGGEIIVTDMDTIEKSNLNRQFLFRPWDVTKLKSDTAAAAVRQMNPHIRVTSHQNRVGPDTERIYDDDFFQNLDGVANALDNVDARMYMDRRCVYYRKPLLESGTLGTKGNVQVVIPFLTESYSSSQDPPEKSIPICTLKNFPNAIEHTLQWARDEFEGLFKQPAENVNQYLTDPKFVERTLRLAGTQPLEVLEAVQRSLVLQRPQTWADCVTWACHHWHTQYSNNIRQLLHNFPPDQLTSSGAPFWSGPKRCPHPLTFDVNNPLHLDYVMAAANLFAQTYGLTGSQDRAAVATFLQSVQVPEFTPKSGVKIHVSDQELQSANASVDDSRLEELKATLPSPDKLPGFKMYPIDFEKDDDSNFHMDFIVAASNLRAENYDIPSADRHKSKLIAGKIIPAIATTTAAVVGLVCLELYKVVQGHRQLDSYKNGFLNLALPFFGFSEPLAAPRHQYYNQEWTLWDRFEVQGLQPNGEEMTLKQFLDYFKTEHKLEITMLSQGVSMLYSFFMPAAKLKERLDQPMTEIVSRVSKRKLGRHVRALVLELCCNDESGEDVEVPYVRYTIR [UBA1]”, the melting temperature was 49.5 °C in data set [1] (cell cycle stage: G1/S) and 50 °C in data set [1] (cell cycle stage: mitosis). The “solubility change mitosis (log2)” value in data set [2] is -0.171. Further, the thermal stability score in data set [3] (setting [5]) amounted to 2.94; in data set [3] (cell cycle stage: mitosis), 5.38. Further, the “solubility in G1/S (log2)” value in data set [4] came to 0.11.

Regarding “MSSTLAKIAEIEAEMARTQKNKATAHHLGLLKARLAKLRRELITPKGGGGGGPGEGFDVAKTGDARIGFVGFPSVGKSTLLSNLAGVYSEVAAYEFTTLTTVPGVIRYKGAKIQLLDLPGIIEGAKDGKGRGRQVIAVARTCNLILIVLDVLKPLGHKKIIENELEGFGIRLNSKPPNIGFKKKDKGGINLTATCPQSELDAETVKSILAEYKIHNADVTLRSDATADDLIDVVEGNRVYIPCIYVLNKIDQISIEELDIIYKVPHCVPISAHHRWNFDDLLEKIWDYLKLVRIYTKPKGQLPDYTSPVVLPYSRTTVEDFCMKIHKNLIKEFKYALVWGLSVKHNPQKVGKDHTLEDEDVIQIVKK [DRG1]”, the melting temperature in data set [1] (cell cycle stage: G1/S) was found to be 53.8 °C; in data set [1] (cell cycle stage: mitosis), 53.4 °C. In data set [2], the “solubility change mitosis (log2)” value is -0.0219. Also, the figures for the thermal stability score in data set [3] (setting [5]) and in data set [3] (cell cycle stage: mitosis) were -0.58 and -2.04, respectively. Moreover, the “solubility in G1/S (log2)” value in data set [4] was determined as 0.118.
